Here are results for ten molecules from patent US20240216557A1 (Memorial Sloan Kettering, published 2024).

Bounds are passed on as bounds.

The target of test [1] is T1, hDLL3 (human, UniProt Q9NYJ7 27-479, limits assumed).
T1 construct: also called human DLL3
T1 sequence: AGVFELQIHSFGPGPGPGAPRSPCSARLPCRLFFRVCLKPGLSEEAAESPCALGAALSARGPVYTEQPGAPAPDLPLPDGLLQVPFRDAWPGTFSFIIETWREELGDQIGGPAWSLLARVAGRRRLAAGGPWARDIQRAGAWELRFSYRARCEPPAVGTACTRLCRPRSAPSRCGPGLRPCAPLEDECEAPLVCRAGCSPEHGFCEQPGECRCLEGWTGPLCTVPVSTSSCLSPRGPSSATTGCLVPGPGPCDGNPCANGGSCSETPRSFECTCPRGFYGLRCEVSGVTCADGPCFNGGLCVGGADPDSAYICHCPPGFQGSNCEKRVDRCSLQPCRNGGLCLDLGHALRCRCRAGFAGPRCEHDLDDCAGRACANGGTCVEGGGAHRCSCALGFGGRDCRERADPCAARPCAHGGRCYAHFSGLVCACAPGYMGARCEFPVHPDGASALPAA
Nature of the test: method not stated (column 'Affinity hDLL3').

Test [2] deals with T2, Recombinant Human DLL3 Protein (amino acids Ala27-Ala479, cat #9749-DL, R&D Systems) (human, UniProt Q9NYJ7 27-479).
T2 construct: Bought protein
T2 sequence: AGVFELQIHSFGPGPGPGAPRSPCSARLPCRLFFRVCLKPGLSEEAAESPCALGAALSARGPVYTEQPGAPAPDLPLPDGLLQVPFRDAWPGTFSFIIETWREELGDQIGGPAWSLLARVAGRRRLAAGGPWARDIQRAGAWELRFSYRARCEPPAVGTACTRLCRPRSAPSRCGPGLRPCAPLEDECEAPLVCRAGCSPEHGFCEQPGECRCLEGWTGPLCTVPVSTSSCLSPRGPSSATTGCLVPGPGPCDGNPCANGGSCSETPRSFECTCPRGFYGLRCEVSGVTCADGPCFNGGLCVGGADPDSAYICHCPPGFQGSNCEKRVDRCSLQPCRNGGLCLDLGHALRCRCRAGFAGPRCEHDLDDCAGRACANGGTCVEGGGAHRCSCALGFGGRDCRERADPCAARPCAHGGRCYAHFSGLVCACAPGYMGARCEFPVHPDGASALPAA
Nature of the test: BLI, Octet HTX, 25 C; mAb on anti-mouse Fc sensors, DLL3 as analyte from 200 nM. (In general: Biolayer interferometry detects binding as a change in optical thickness at a sensor tip.)

The target of a further test is hDLL4 (human, UniProt Q9NR61 27-524, limits assumed). Nature of the test: ELISA; signal unit not stated. (In general: ELISA stands for enzyme-linked immunosorbent assay.)
The target of test [3] is T1, hDLL3. Nature of the test: ELISA; signal unit not stated.
Test [4] concerns the target T3, DLL3 on H82 xenograft tumor cells (UniProt Q9NYJ7 27-618, limits assumed).
T3 construct: whole, on cells; H82 is a human SCLC line by general knowledge
T3 sequence (looked up): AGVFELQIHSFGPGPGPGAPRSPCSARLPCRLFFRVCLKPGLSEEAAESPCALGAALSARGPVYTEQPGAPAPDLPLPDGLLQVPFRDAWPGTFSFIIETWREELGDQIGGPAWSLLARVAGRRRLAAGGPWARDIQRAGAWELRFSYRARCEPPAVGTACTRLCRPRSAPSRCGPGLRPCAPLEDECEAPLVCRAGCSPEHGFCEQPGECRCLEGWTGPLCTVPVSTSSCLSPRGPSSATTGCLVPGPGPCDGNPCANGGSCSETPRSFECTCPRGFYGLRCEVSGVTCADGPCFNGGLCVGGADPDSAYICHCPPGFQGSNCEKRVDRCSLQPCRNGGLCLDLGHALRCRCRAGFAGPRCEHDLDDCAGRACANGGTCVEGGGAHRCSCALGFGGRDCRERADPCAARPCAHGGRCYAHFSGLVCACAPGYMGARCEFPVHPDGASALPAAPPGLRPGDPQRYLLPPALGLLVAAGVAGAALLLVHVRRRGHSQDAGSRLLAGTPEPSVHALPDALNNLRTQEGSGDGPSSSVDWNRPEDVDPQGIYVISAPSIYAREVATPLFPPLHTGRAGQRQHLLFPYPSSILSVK
The test can be described thus: immunoPET imaging of athymic mice bearing right flank subcutaneous H82 xenografts after tail vein injection of the Zr-89 labelled antibody; time point not printed on the sheet.

Test [5] concerns the target T3, DLL3 on H82 xenograft tumor cells. The test is described as above. This is another data set of the same source.
Test [6] has the same target. Nature of the test: immunoPET and ex vivo biodistribution of the Zr-89 labeled antibody in mice with H82 xenografts.

Sequence of hDLL4 (Q9NR61 27-524 limits assumed): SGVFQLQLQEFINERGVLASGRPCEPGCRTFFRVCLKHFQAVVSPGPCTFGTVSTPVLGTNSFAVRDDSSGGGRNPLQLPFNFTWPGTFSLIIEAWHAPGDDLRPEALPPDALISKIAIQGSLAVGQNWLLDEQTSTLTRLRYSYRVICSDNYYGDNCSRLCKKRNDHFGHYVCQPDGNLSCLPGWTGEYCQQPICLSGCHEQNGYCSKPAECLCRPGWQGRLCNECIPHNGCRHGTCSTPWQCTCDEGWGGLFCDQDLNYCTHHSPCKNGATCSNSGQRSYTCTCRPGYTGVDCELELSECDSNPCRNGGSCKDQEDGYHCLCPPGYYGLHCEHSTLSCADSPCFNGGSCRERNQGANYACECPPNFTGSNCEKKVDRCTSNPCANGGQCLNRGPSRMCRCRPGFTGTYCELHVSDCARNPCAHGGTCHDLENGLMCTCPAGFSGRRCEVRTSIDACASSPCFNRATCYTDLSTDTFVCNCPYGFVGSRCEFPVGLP

B1: L22 (antibody, V domains shown)
VH: EVQLLESGGGLVQPGGSLRLSCAASGFTFSSYAMGWVRQTPGKGLEWVSTISGRGGDTYYADSVKGRFTISRDNSKNTLYLQMNSLRAEDTAIYYCAKERGLGFDYWGQGTLVTVSS
VL: DIVMTQTPLSLPVTPGEPASISCRSSQSLLDSDDGNTYLDWYLQKPGQSPQLLIYTLSYRASGVPDRFSGSGSGTDFTLKISRVEAEDVGVYYCMQHLEFPLTFGGGTKVEIK
One may read the Kd as the constant that tells how readily two partners part at equilibrium. For B1, the Kd with hDLL3 [1] is 1.46 nM; in test [2] it was 3.55 nM. Moreover, the “ELISA hDLL4” value in the test with hDLL4 came to 0.056. Besides, the “ELISA hDLL3” value with hDLL3 [3] worked out at 1.64.

B2: [89Zr]Zr-DFO-A18 antibody (antibody, V domains shown)
VH: QVTLRESGPALVKSTQTLTLTCTFSGFSLSTSGMCVSWIRQTPGKALEWLALIDWDDNKYYSTSLKTRLIISKDTSKNQVVLTMTNMEPVDTATYYCARIRGYSGSYDAFDIWGQGTMVTVSS
VL: DIVMTQSPLSLPVTPGEPASISCRSSQSLLHSNGYNYLDWYLQKPGQSPHILLYLGSNRAPGVPDRFSGSGSGTDFTLKISRVEAEDVGVYYCMQALQTPFTFGPGTKVDIK
modifications: p-SCN-Bn-DFO chelator bioconjugated to the antibody (sites not given), radiolabeled with Zr-89
notes: also called A18 (monoclonal IgG4, DFO-conjugated, Zr-89 labeled)
As to B2, the binding result in test [4] is listed as “binds”.

B3: A18 (antibody, V domains shown)
VH: QVTLRESGPALVKSTQTLTLTCTFSGFSLSTSGMCVSWIRQTPGKALEWLALIDWDDNKYYSTSLKTRLIISKDTSKNQVVLTMTNMEPVDTATYYCARIRGYSGSYDAFDIWGQGTMVTVSS
VL: DIVMTQSPLSLPVTPGEPASISCRSSQSLLHSNGYNYLDWYLQKPGQSPHILLYLGSNRAPGVPDRFSGSGSGTDFTLKISRVEAEDVGVYYCMQALQTPFTFGPGTKVDIK
notes: Purified hybridoma monoclonal antibody
As to B3, in test [2], the Kd turned out to be 0.236 nM.

B4: B22 (antibody, V domains shown)
VH: EVQLVESGGGLVQPGGSLRLSCAASGFTFNNFWMSWVRQAPGKGLEWVANIKQDGSEKYYVDSVKGRFTISRDNAKNSLYLQMNSLRAEDTAVYYCARESYFDLWGRGTLVTVSS
VL: QAVVTQESALTTSPGETVTLTCRSSTGAVTTSNYANWVQEKPDHLFTGLIGGTNNRAPGVPARFSGSLIGDKAALTITGAQTEDEAIYFCALWYSNRWVFGGGTKLTVL
notes: Purified hybridoma monoclonal antibody; loaded on anti-mouse Fc sensors in BLI
With B4, the Kd in test [2] was 1.84 nM.

B5: [89Zr]Zr-DFO-J8 antibody (antibody, V domains shown)
VH: QVHLVQSGAEVKKPGASVKVSCKASGYTFTIYYIHWVRQAPGQGLEWMGIINPSGGSTSYAQKFQGRVTMTRDTSTSTVYMELSSLRSEDTAVYYCSGNDYVDYVTTDYYGMDVWGQGTTVTVSS
VL: DIQMTQSPSSLSASVGDRVTITCRASQGISNYLAWFQQKPGKAPKSLIYAASSLQSGVPSKFSGSGSGTDFTLTISSLQPEDFATYYCQQYNSSPYTFGQGTKLEIK
modifications: p-SCN-Bn-DFO chelator bioconjugated to the antibody (sites not given), radiolabeled with Zr-89
notes: also called J8 (monoclonal IgG4, DFO-conjugated, Zr-89 labeled)
Regarding B5, in test [5], the binding result is “binds”.

B6: B2 (antibody, V domains shown)
VH: QVQLVQSGAEVKKPGASVKVSCKASGYTFTSYYMHWVRQAPGQGLEWMGIINPSGGSTSYAQKFRGRVTMTRDTSTSTVYMELSSLRSEDTAVYYCARGDYDILTDYYYNMDVWGQGTTVTVSS
VL: DIQMTQSPSAMSASVGDRVTITCRASQGISNYLAWFQQKPGKVPKRLIYAASSLQSGVPSRFSGSGSGTEFTLTISSLQPEDFATYYCLQHNSYPYTFGQGTKLEIK
Consider B6, for which the Kd in test [2] is 1.46 nM. Also, the “ELISA hDLL4” value in the test with hDLL4 was 0.043. Besides, the “ELISA hDLL3” value in the test with hDLL3 [3] was 1.21.

B7: J8 (antibody, V domains shown)
VH: QVHLVQSGAEVKKPGASVKVSCKASGYTFTIYYIHWVRQAPGQGLEWMGIINPSGGSTSYAQKFQGRVTMTRDTSTSTVYMELSSLRSEDTAVYYCSGNDYVDYVTTDYYGMDVWGQGTTVTVSS
VL: DIQMTQSPSSLSASVGDRVTITCRASQGISNYLAWFQQKPGKAPKSLIYAASSLQSGVPSKFSGSGSGTDFTLTISSLQPEDFATYYCQQYNSSPYTFGQGTKLEIK
In the case of B7, the Kd with hDLL3 [1] was less than 0.001 nM; in test [2], 0.001 nM. For the same molecule, the “ELISA hDLL4” value with hDLL4 was 0.085. Also, the “ELISA hDLL3” value in the test with hDLL3 [3] came out at 1.38.

B8: E9 (antibody, V domains shown)
VH: QVQLVQSGAEVKKPGASVKVSCKASGYTFTSYYMHWVRQAPGQGLEWMGVINSSGGSTSYAQKFQGRVTMTRDTSTSTVYMDLSSLRSEDTAVYYCARGYCTNGVYYDEDFDYWGQGTLVTVSS
VL: DIQMTQSPSSLSASVGDRVTITCRASQGISHYLAWFQQKPGKAPTSLIYAASSLQSGVPSKFSGSGSGTDFTLTISSLQPEDFATYYCQQYNSYPLTFGGGTKVEIK
notes: Purified hybridoma monoclonal antibody (Ablexis AlivaMab Kappa mice); loaded on anti-mouse Fc sensors in BLI
Take B8: the dissociation constant Kd in test [2] is 0.3 nM.

B9: E9 monoclonal IgG4 antibody bioconjugated to p-SCN-Bn-DFO and radiolabeled with Zr-89 (antibody, V domains shown)
VH: QVQLVQSGAEVKKPGASVKVSCKASGYTFTSYYMHWVRQAPGQGLEWMGVINSSGGSTSYAQKFQGRVTMTRDTSTSTVYMDLSSLRSEDTAVYYCARGYCTNGVYYDEDFDYWGQGTLVTVSS
VL: DIQMTQSPSSLSASVGDRVTITCRASQGISHYLAWFQQKPGKAPTSLIYAASSLQSGVPSKFSGSGSGTDFTLTISSLQPEDFATYYCQQYNSYPLTFGGGTKVEIK
modifications: p-SCN-Bn-DFO chelator bioconjugated to the antibody (sites not given), radiolabeled with Zr-89
As for B9, the binding result in test [6] is reported as “binds”.

B10: P4 (antibody, V domains shown)
VH: EVQLVESGGGLVKPGGSLRLSCAASGFTFSFYSMNWVRQAPGKGLEWVSSISSSSSYIYYADSVKGRFTISRDNAKNSLYLQMNSLRAEDTAVYYCARNYDFWRGAFDIWGQGTMVTVSS
VL: not shown
notes: as for B4
As to B10, the Kd in test [2] is 6.5 nM.
